Where “and” joins values, the source holds several entries; their conditions need not be identical. Equal values may be shown once.
Target: T1, wild-type GADD45α (growth arrest- and DNA damage-induced gene 45α), C-terminally myc-tagged (human), P24522
T1 chain: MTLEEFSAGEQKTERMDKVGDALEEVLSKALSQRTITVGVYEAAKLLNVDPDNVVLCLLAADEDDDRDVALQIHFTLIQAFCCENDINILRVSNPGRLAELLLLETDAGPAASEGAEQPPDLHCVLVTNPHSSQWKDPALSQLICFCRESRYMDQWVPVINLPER
Test: native gel or EMSA
Settings: remark: other sources report otherwise

B1: wild-type GADD45α (growth arrest- and DNA damage-induced gene 45α), C-terminally myc-tagged, P24522 1-165 (natural protein)
chain: T1 chain
For B1, which stoichiometry N is on record?
The stoichiometry N was 3 and 4.
